Reference: article PMC3958310

Target: DENV1 envelope (E) protein, strain Western Pacific 74, on the virus surface (dengue virus serotype 1, strain Western Pacific 74)

B1: Fab fragment of HMAb 1F4 (Fab, V domains shown)
VH: QVQLVESGGGVVQPGRSLRLSCAASGFTFSAYGMHWVRQAPGKGLEWVAIIWYDGSNKYYADSVKGRFTISRDNSKNTLHLQMNSLRAEDTAIYYCARDKNPGTKPYYHYGMDVWGQGTTVTVSS
VL: QSVLTQPPSVSEAPRQRVTISCSGSSSNIGNNAVNWYQQFPGKAPKLLIYYDDLLPSGVSDRFSGSKSGTSASLAISGLQSEDEAYYYCAAWDDSLIGVVFGGGTKLTVL
neutralisation of DENV1 (Western Pacific 74) in U937 cells expressing DC-SIGN, flow cytometry, Neut50: 0.11 µg/mL
